Assay results as given in PMC4164784, “4E-BPs require non-canonical 4E-binding motifs and a lateral surface of eIF4E to repress translation” (Nature Communications, 2014).
pKd: −log10 of the molar value. No end group written: not given here.

What was measured:
[1] = target: T1, Dm eIF4E II-AA mutant (I96A, I112A; residues 69–248) (Drosophila melanogaster, UniProt P48598, I107A/I123A); assay: ITC, binding to eIF4E II-AA mutant (residues 69–248); conditions: for affinity for eIF4E II-AA mutant relative to WT (in words): bipartite peptides (C+NC) or eIF4G, lateral-surface mutant vs WT
T1 construct: The solution of eIF4E (residues 69–248, WT or mutant: 1–20 μM) in the calorimetric cell; His6 (N, cleaved yes); made in house; host or cells: E. coli BL21 Star (DE3)
T1 sequence (P48598 80-259 I107A/I123A): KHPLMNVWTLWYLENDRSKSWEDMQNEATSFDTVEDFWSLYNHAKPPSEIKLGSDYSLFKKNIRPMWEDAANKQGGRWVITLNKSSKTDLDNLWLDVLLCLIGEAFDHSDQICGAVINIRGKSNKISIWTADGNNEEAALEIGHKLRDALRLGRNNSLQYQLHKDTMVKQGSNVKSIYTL
Protocol: Unless indicated otherwise, all the proteins were expressed in E. coli BL21 Star (DE3) cells (Invitrogen) that were grown in LB medium overnight at 20 °C. The lysis buffers were supplemented with DNaseI (5 μg ml^−1), lysozyme (1 mg ml^−1) and protease inhibitor cocktail (Roche). The truncated His6-eIF4E (residues 69–248) that was used in the ITC experiments and in Figs 2c and 5b was purified in lysis buffer containing 50 mM HEPES (pH 7.2), 300 mM NaCl, 20 mM imidazole and 2 mM β-mercaptoethanol using Ni^2+-affinity chromatography (HisTrap HP 5 ml, GE Healthcare) and eluted with a gradient of 20–500 mM imidazole. After the cleavage of the His6-tag with HRV3C protease (homemade), the protein was further purified using a heparin column (HiTrap Heparin HP 5 ml, GE Healthcare), followed by size exclusion chromatography (Superdex 75 16/60, GE Healthcare) in 20 mM Na-phosphate (pH 7.0), 300 mM NaCl and 2 mM dithiothreitol (DTT).
For the ITC measurements and the competition assays shown in Figs 4 and 5d–g, the 4E-BP peptides corresponding to the canonical (C) motifs, the combined (C+NC) motifs or L+NC were expressed with an HRV3C cleavable N-terminal MBP-tag and a non-cleavable C-terminal GB1 domain. The cells were lysed by sonication in lysis buffer containing 50 mM HEPES (pH 7.2), 300 mM NaCl and 2 mM DTT. The proteins were purified from the cleared lysates using amylose resin (New England Biolabs) followed by the cleavage of the MBP tag with HRV3C protease overnight at 4 °C. The proteins were further purified by size exclusion chromatography (Superdex 75 16/60, GE Healthcare) in 20 mM Na-phosphate (pH 7.0), 300 mM NaCl and 2 mM DTT. For the eIF4G fragment (residues 578–650) the MBP was removed after cleavage with TEV protease through an additional anion exchange chromatography (HiTrap Q HP 5 ml, GE Healthcare) before the final gel filtration.
The ITC experiments were performed using a VP-ITC microcalorimeter (MicroCal) at 20 °C. The solution of eIF4E (residues 69–248, WT or mutant: 1–20 μM) in the calorimetric cell was titrated with tenfold concentrated solutions of GB1-stabilized peptides corresponding to 4E-BPs C+NC (10 μM), C (50 μM), L+NC (100 μM CUP, 200 μM Thor and 4E-T) or eIF4G (residues 578–650, 20 μM) that were dissolved in the same buffer (20 mM Na-phosphate (pH 7.0) and 150 mM NaCl). The titration experiments consisted of an initial injection of 2 μl followed by 28 injections of 10 μl at an interval of 240 s. Each binding experiment was repeated twice. The thermodynamic parameters were estimated using a one-site binding model (Origin version 7.0), whereby the datapoint of the first injection was removed for the analysis.
mutant (residues 69-248) and CUP (a), Thor (b), 4E-T (c) and eIF4G (d) peptides. The
measurements were performed as described in Supplementary Fig. 3. The solutions
contained the 4E-BP C+NC peptides (10 µM) and 20 µM for the eIF4G peptide. The eIF4E
II-AA mutant concentration in the calorimetric cell was 5 µM.

[2] = target: T2, eIF4E–eIF4G complex (eIF4E WT; eIF4G residues 578–650) (Drosophila melanogaster, UniProt P48598); assay: Competition assay, displacement of GST-eIF4G from preassembled eIF4E (WT)–eIF4G complexes; assay type: biochemical; conditions: for displacement of eIF4G from eIF4E WT–eIF4G complex (in words): 2–20 μM GB1-fused competitor, Strep-Tactin pull down; for competition with eIF4G for eIF4E WT (in words): Fig. 5a,c, fivefold molar excess of MBP-tagged competitor, 30 min at 4 °C, m7GTP or Strep-Tactin pull down
T2 construct: full-length eIF4E (WT or the II-AA mutant) containing an N-terminal SNH-tag was coexpressed; made in house; host or cells: E. coli BL21 Star (DE3), coexpression
T2 sequence (P48598 1-248 isoform P48598-2): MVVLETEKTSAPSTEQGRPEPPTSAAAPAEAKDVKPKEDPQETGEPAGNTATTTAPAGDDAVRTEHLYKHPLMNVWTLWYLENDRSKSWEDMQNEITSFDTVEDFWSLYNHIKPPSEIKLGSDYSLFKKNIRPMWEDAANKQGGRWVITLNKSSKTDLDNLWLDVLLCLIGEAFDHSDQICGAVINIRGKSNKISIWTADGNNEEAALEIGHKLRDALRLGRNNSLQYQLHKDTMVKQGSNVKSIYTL
Protocol: For the competition assays shown in Figs 5a,c and 6a,b, complexes containing SHN- or MBP-tagged eIF4E (WT or II-AA mutant) bound to GST-eIF4G (residues 578–650), GST-Thor (full length), GST-4E-T (residues 1–58) or GST-CUP (311–440) were obtained by coexpressing the corresponding proteins in E. coli BL21 (DE3) STAR cells (30 ml culture). The cells were resuspended in lysis buffer (5 ml) that was supplemented with EDTA-free protease inhibitor (Roche) and 1 mg ml^−1 lysozyme and lysed by sonication. The cleared lysates were incubated with 400 μl of Protino Glutathione Agarose 4B (Macherey-Nagel) for 1 h. The beads were washed three times with lysis buffer, and the proteins were eluted after 10 min of incubation with lysis buffer containing 25 mM L-glutathione. The protein complexes were stored at −20 °C or used in competition assays.
The purified recombinant complexes were mixed with excess amounts of the indicated purified competitor proteins (Fig. 5c) or with bacterial lysates expressing the competitor proteins (Figs 5a and 6) and incubated for 30 min at 4 °C. After incubation, 20 μl of immobilized γ-Aminophenyl-m^7GTP or Strep-Tactin Sepharose (IBA), were added to the samples and incubated for another 40 min at 4 °C. The beads were washed three times with lysis buffer and eluted with lysis buffer containing 2.5 mM desthiobiotin (Strep-Tactin Sepharose) or with 20 μl of SDS–PAGE loading buffer (Aminophenyl-m^7GTP beads). The proteins were analyzed by 10–15% SDS–PAGE followed by staining with Coomassie blue staining. […]

[3] = eIF4E II-AA (69–248), 20 °C, pH 7.0
[4] = Fig. 4, 2 μM complex, 20 min at 4 °C, n=2

Substance: 4E-T C+NC: 4E-T residues 9–44, eIF4E-binding region short, C-terminal GB1
- affinity for eIF4E II-AA mutant relative to WT (in words) [1]: not significantly affected
- TΔS [1, 3]: 2.16 kcal/mol
- ΔG [1, 3]: -10.80 kcal/mol
- displacement of eIF4G from eIF4E WT–eIF4G complex (in words) [2, 4]: displaced eIF4G from the complex and associated with eIF4E

Substance: CUP C+NC: CUP residues 325–376, eIF4E-binding region short, C-terminal GB1 (KSYTRSRLMDIRNGMFNALMHRSKESFVMPRIATCDDIELEGRLRRMNIWRT-GB1; UniProt Q9VMA3 325-376, looked up, fragment)
- pKd ([1]; VP-ITC, 20 °C, 20 mM Na-phosphate (pH 7.0), 150 mM NaCl, GB1-fused C+NC peptides (10 μM) or eIF4G (20 μM) into eIF4E II-AA 5 μM, one-site model, each experiment repeated twice): 7.30
- affinity for eIF4E II-AA mutant relative to WT (in words) [1]: reduced by one and two orders of magnitude, respectively
- TΔS [1, 3]: 8.79 kcal/mol
- ΔG [1, 3]: -9.84 kcal/mol
- ΔH [1, 3]: -18.6 ± 0.7 kcal/mol
- displacement of eIF4G from eIF4E WT–eIF4G complex (in words) [2, 4]: displaced eIF4G from the complex and associated with eIF4E
- molar excess at which eIF4G was effectively displaced ([2]; Fig. 4, 2 μM complex, GB1-fused C+NC competitor, 20 min at 4 °C, n=2): two
- competition with eIF4G for eIF4E WT (in words) [2]: efficiently displaced preassembled eIF4G

Substance: Thor C+NC: Thor residues 50–83, eIF4E-binding region short, C-terminal GB1 (TKLIYERAFMKNLRGSPLSQTPPSNVPSCLLRGT-GB1; UniProt Q9XZ56 50-83, looked up, fragment)
- affinity for eIF4E II-AA mutant relative to WT (in words) [1]: reduced by one and two orders of magnitude, respectively
- TΔS [1, 3]: -0.91 kcal/mol
- ΔG [1, 3]: -8.46 kcal/mol
- displacement of eIF4G from eIF4E WT–eIF4G complex (in words) [2, 4]: displaced eIF4G from the complex and associated with eIF4E

Substance: Thor C: Thor residues 50–63, canonical motif
- competition with eIF4G for eIF4E WT (in words) [2]: abolished competition
